According to patent US20200277373A1, “ANTI-TREM2 ANTIBODIES AND METHODS OF USE THEREOF” (Denali Therapeutics Inc., priority 2017, published 2020):
Substitutions are numbered along the chain they refer to. Each block holds one molecule with its values, some of them ahead of it.

Columns and labels:
[1] = system: human macrophages; assay: Cell survival assay, human monocyte-derived macrophages, restricted or no M-CSF, CellTiter Glo; format: cell-based; details: plate coated antibody, 5 ng/mL or no M-CSF, day 6
Procedure: TREM2 can support microglia energy homeostasis (Ulland et al., Cell, 2017, 170:649-663). […] To understand if enhancing TREM2 activity with TREM2 agonistic antibodies is sufficient for macrophage/microglia survival under limited M-CSF conditions, human macrophage differentiation and survival studies were performed using antibodies as described herein. Human monocytes isolated from peripheral blood were incubated with 5 ng/mL M-CSF in the presence of titrated concentrations of plate coated TREM2 antibodies or isotype controls. On day 6 cell viability was determined by CellTiter Glo viability assay.

[2] = target: T1, hTREM2 (Homo sapiens, UniProt Q9NZC2); assay: Octet binning (competition with R&D antibody on biotinylated TREM2-His); format: binding; details: epitope bin, 100 nM
T1 construct: The ecto domain (residues 19-172) of TREM2 (UniProtKB—Q9NZC2); secretion signal of mouse Ig kappa chain V-III (P01661 aa 1-20) (N); made in house; host or cells: Expi293F
T1 sequence (Q9NZC2 19-172): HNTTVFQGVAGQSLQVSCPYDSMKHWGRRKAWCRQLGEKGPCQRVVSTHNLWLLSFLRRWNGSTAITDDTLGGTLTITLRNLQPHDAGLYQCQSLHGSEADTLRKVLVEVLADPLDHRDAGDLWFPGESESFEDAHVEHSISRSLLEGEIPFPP
Procedure: Competition with R&D antibody was done by Octet Red using biotinylated human Trem2-His protein generated in house. Biotinylated human TREM2-His protein was captured on a streptavidin tip, and the tip was then incubated in either 100 nM of R&D Ab or buffer for 3 minutes, followed by incubation for 3 minutes in 100 nM of testing hybridoma. The difference of hybridoma binding curve with or without pre-binding to R&D antibody was analyzed to determine the epitope.

[3] = target: T2, TREM2 (Homo sapiens, UniProt Q9NZC2); assay: FACS binning on human TREM2-HEK cells (competition with R&D antibody); format: binding; details: epitope bin, 100 nM antibody
T2 construct: expressed in transfected cells
Procedure: HEK293 overexpressing human TREM2 (H6) were harvested by 0.05% trypsin and incubated at 37° C. incubator for 2 hours for surface TREM2 recovery. After incubation, cells were washed with 1×PBS and FACS buffer (PBS+0.5% BSA) with human Trustain FcX solution (Biolegend, Cat #422302) was added at a density of 10^6/mL. Cells were seeded at 100,000 cells per well in a 96-well round-bottom and incubated 20 minutes at room temperature. After incubation, anti-TREM2 antibodies (100 nM) were added to the cells and the cells were incubated for 45 minutes on ice. After incubation, rat anti-h/mTREM2-APC antibody (1:100, R&D, Cat # FAB17291A) was added to the cells, and the cells were incubated for 30 minutes on ice. After incubation, cells were washed with FACS buffer three times and resuspended in 10 μL FACS buffer, then analyzed by flow cytometry (BD FACSCanto II, San Jose, Calif.). 20,000 events were obtained for each sample. The ability to compete with R&D antibody was determined by MFI analysis compared to isotype or buffer control wells.
T2 sequence (O43914 22-113 partner, one chain of several): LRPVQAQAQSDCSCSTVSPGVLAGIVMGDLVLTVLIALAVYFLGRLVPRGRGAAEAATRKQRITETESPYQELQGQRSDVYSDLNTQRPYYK

[4] = target: T3, TREM2 (Homo sapiens, UniProt Q9NZC2); assay: TREM2 pSyk antagonist assay on human macrophages (antibody pre-incubation, then liposomes); format: cell-based; details: FIGS. 9C-9D, 30 nM antibody
T3 construct: macrophage cells that endogenously express TREM2; endogenous in cells; host or cells: primary human monocyte-derived macrophages from donor blood
T3 sequence (Q9NZC2 19-230): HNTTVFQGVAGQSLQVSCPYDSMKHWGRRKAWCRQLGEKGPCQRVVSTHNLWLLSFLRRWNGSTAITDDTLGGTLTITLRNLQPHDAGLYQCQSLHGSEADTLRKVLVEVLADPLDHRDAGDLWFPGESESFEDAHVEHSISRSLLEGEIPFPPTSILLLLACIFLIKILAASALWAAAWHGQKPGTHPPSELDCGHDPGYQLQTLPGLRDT
Procedure: Human macrophages were differentiated from donor blood using a human monocyte enrichment cocktail (Stem Cell Technologies) and culturing monocytes with human mCSF for five days in macrophage media (RPMI+10% Hyclone FBS+Glutamax+Pen/Strep+non-essential amino acids+sodium pyruvate). On the fifth day, the human macrophages were scraped from the flasks and were re-plated at 100,000 cells/well on a 96-well poly-D-lysine-coated plate in the macrophage media (without mCSF). The cells were incubated for 24 hours to adhere, then the media was removed.
Antibodies diluted in RPMI alone were immediately added to the cells, and allowed to incubate for 30 minutes at 37° C. The antibodies were then removed. Lipid vesicles comprised of 70% DOPC and 30% POPS (made according to the procedure for making vesicles described above) in HBSS were added to the cells and incubated […] at 37° C. The liposome/antibody solution was removed, and 35 μL lysis buffer (Cell Signaling Technologies, CST) was added using the liquid handler. The lysate was then incubated at 4° C. for 30 minutes, then either frozen at −80° C. or immediately carried forward to a pSyk AlphaLISA assay as described above.

[5] = system: human macrophages; assay: Signaling pathway Alpha-LISA (pSYK, pERK1/2, pGSK3-beta, pAKT) in human macrophages; format: cell-based; details: 15 minutes
Procedure: Anti-TREM2 antibodies were characterized for activation of several signaling pathways, SYK, ERK1/2, AKT and GSK3-beta. Human macrophages differentiated from peripheral monocytes were plated in 96-well plates at a density of 100,000 cell/well. The assay was tested in three conditions (0%, 0.5%, and 10% FBS in the media) for 3 hours. Cells were stimulated with the antibody RS9.F6, 24B4.A1, 8A11.B1, 3D3.A1, 54C2.A1, isotype control IgG2ak, rat anti-TREM2 from R&D, isotype control rat IgG2b, or no treatment (NT) for 15 minutes. The cell lysates were measured for p-Y525/526-SYK, p-T202/Y204-ERK1/2, p-S9-GSK3-beta, and p-S473-AKT using Alpha-LISA kits (Perkin Elmer). […] The antibodies stimulated p-GSK signal moderately (FIG. 6C).

[6] = target: T4, soluble TREM2 (sTREM2) (Homo sapiens, UniProt Q9NZC2); assay: Soluble TREM2 (TREM2 shedding) assay in HEK293 TREM2/DAP12 cells; format: cell-based; parameters: key to STREM2: NC = no change; −− = reduced sTREM2; ++ = increased sTREM2; details: change in sTREM2 levels
T4 construct: expressed in transfected cells
T4 sequence (O43914 22-113 partner, one chain of several): as the sequence (O43914 22-113 partner, one chain of several) above
Procedure: HEK293 cells stably expressing human TREM2 and DAP12 were plated onto 96-well plates pre-coated with poly-D-lysine 4-16 hours prior to antibody treatment. Antibody supernatants or control antibodies were diluted into fresh complete media and added onto cells in triplicate. Cells were incubated with antibody containing media for 18 hours prior to removal of the cell supernatant for assay by TREM2 ELISA. Samples and standards were diluted 1:10 into blocking buffer (3% BSA/TBST) in the assay plate. Briefly, MSD small spot streptavidin plates were coated with biotinylated anti-hTREM2 polyclonal antibody (R&D Systems) overnight at 4° C. or 1 hour at room temperature. Plates were then blocked overnight at 4° C., or 1 hour at room temperature, with blocking buffer, 3% BSA/TBST. Plates were washed three times with TBST in a Biotek plate washer (used for all washes) prior to addition of diluent (blocking buffer) and denatured supernatants from cell culture. A TREM2-His protein diluted in 3% BSA/TBST was used as a standard for absolute quantification. Following 1 hour incubation at room temperature, plates were washed with TBST. The primary detection antibody, sulfo-tagged goat anti-human TREM2 (R&D Systems), diluted in 3% BSA/TBST was added and incubated for 1 hour at room temperature. After washing with TBST, MSD plates were developed using 2×MSD read buffer T, followed by detection using an MSD Sector plate reader. MSD values were converted to absolute quantities of sTREM2 by fitting a standard curve using Prism 7.0 software (Graphpad). Modulation of TREM2 shedding was represented as a ratio to cells cultured with no specific TREM2 antibody in the media.

[7] = target: T1, hTREM2; assay: Biacore T200 binding kinetics to hTREM2; details: analyte hTREM2
Procedure: (§1) The binding of the TREM2/TfR-binding protein RS9.F6/3C35.21.17 to TREM2 and TfR was measured using SPR on a Biacore T200 instrument. To measure TfR binding, anti-human-Fab was immobilized on a CM5 chip, and the TREM2/TfR-binding protein was captured. Full-length human TfR or human TfR apical domain at serial dilution (e.g., concentrations of 1-1000 nM) was flowed over the chip (180 second association time) and then allowed to dissociate. Fitting was performed using a 1:1 binding model. To measure TREM2 binding, anti-human-Fc antibody was immobilized on a CM5 chip, and the TREM2/TfR-binding protein was captured. A range of concentrations of recombinant TREM2-His protein were flowed over the chip, and allowed to associate and dissociate. The resulting sensograms were fitted using a 1:1 Langmuir model to estimate kon and koff (FIG. 10).
(§2) The affinities of RS9.F6/3C35.21.17 for human TREM2 and TfR were determined by surface plasmon resonance using a Biacore™ T200. Biacore Series S CM5 sensor chips were immobilized with a mixture of two monoclonal mouse anti-Fab antibodies (Human Fab capture kit from GE Healthcare). Serial 3-fold dilutions of each antigen were injected at a flow rate of 30 μL/min. The binding of the antigens to captured antibody was monitored for 30 to 180 seconds and then their dissociation was monitored for 30-300 seconds in HBS-EP+running buffer (GE, # BR100669). Binding response was corrected by subtracting the RU from a blank flow cell. A 1:1 Languir model of simultaneous fitting of kon and koff was used for kinetics analysis.

[8] = system: hTfR apical domain; assay: Biacore T200 binding kinetics to hTfR apical domain; parameters: species or system human; details: analyte hTfR apical domain
Procedure: as §1
as §2, with “Binding response was corrected by subtracting the RU from a blank flow cell. A 1:1 Languir model of simultaneous fitting of kon and koff was used for kinetics analysis.” left out

Bin by Octet [2]: 1 | Bin by FACS [3]: 1 | liposome mediated pSyk signaling after antibody pre-incubation [4]: enhanced | STREM2 [6]: NC
B1: 54C2.A1: anti-TREM2 antibody clone; VH SEQ ID NO:22, VL SEQ ID NO:33 (antibody, V domains shown)
VH: QVHLQQSGSELRSPGSSVKLSCKDFDSEVFPIAYMSWVRQKPGHGFEWIGDILPSIGRRIYGVKFEDKATLDADTVSNTAYLELNSLTSEDSAIYYCTRKDYGSLAYWGQGTLVTVSA
VL: DVVMTQTPLSLPVSLGDQASISCRSSQSLVHINGNTYLQWYLQKPGQSPKLLIYKVSNRFSGVPDRFSGSGSGTDFTLRISRVEAEDLGVYFCSQSTHLPYTFGGGTKLEIK
survival of human macrophages [1]: increased the survival | p-SYK signal [5]: robust | pERK1/2 signal [5]: robust

Bin by Octet [2]: 1 | Bin by FACS [3]: 1 | STREM2 [6]: NC
B2: 24B4.A1: anti-TREM2 antibody clone; VH SEQ ID NO:17, VL SEQ ID NO:28 (antibody, V domains shown)
VH: B1 VH with A33S, V38I, R58G, K68R, T98A
VL: B1 VL with Y41F, D75A, R79K, L99V
survival of human macrophages [1]: increased the survival | p-SYK signal [5]: robust | pERK1/2 signal [5]: robust

ka [7]: 150000 M⁻¹ s⁻¹ | kd [7]: 0.00038 s⁻¹ | ka [8]: 1.7e+06 M⁻¹ s⁻¹ | kd [8]: 0.19 s⁻¹
B3: RS9.F6/3C35.21.17_LALAPG: TREM2/TfR-binding protein: RS9.F6 Fabs on TfR-binding knob Fc and hole Fc; SEQ ID NOs:35, 91, 92 (protein)
light: B1 VL with I32N, Y37F, Q39H, R79K, S96T, L99V, Y101P
heavy 1: QVQLQQPGAELVKPGASVKLSCKASGYTFTSYWMHWVKQSPGRGLEWIGRSDPTTGGTNYNEKFKTKATLTVDKPSSTAYMQLSSLTSDDSAVYYCVRTSGTGDYWGQGTSLTVSSASTKGPSVFPLAPSSKSTSGGTAALGCLVKDYFPEPVTVSWNSGALTSGVHTFPAVLQSSGLYSLSSVVTVPSSSLGTQTYICNVNHKPSNTKVDKKVEPKSCDKTHTCPPCPAPEAAGGPSVFLFPPKPKDTLMISRTPEVTCVVVDVSHEDPEVKFNWYVDGVEVHNAKTKPREEQYNSTYRVVSVLTVLHQDWLNGKEYKCKVSNKALGAPIEKTISKAKGQPREPQVYTLPPSRDELTKNQVSLWCLVKGFYPSDIAVLWESYGTEWASYKTTPPVLDSDGSFFLYSKLTVTKEEWQQGFVFSCSVMHEALHNHYTQKSLSLSPGK
heavy 2: QVQLQQPGAELVKPGASVKLSCKASGYTFTSYWMHWVKQSPGRGLEWIGRSDPTTGGTNYNEKFKTKATLTVDKPSSTAYMQLSSLTSDDSAVYYCVRTSGTGDYWGQGTSLTVSSASTKGPSVFPLAPSSKSTSGGTAALGCLVKDYFPEPVTVSWNSGALTSGVHTFPAVLQSSGLYSLSSVVTVPSSSLGTQTYICNVNHKPSNTKVDKKVEPKSCDKTHTCPPCPAPEAAGGPSVFLFPPKPKDTLMISRTPEVTCVVVDVSHEDPEVKFNWYVDGVEVHNAKTKPREEQYNSTYRVVSVLTVLHQDWLNGKEYKCKVSNKALGAPIEKTISKAKGQPREPQVYTLPPSRDELTKNQVSLSCAVKGFYPSDIAVEWESNGQPENNYKTTPPVLDSDGSFFLVSKLTVDKSRWQQGNVFSCSVMHEALHNHYTQKSLSLSPGK
